The source of these data is patent publication US20250019457A1 (IBIO, published 2025).

Like-named read-outs stand apart in the source and are kept apart here.

The term Kd denotes the concentration at which binding is half-saturated. Usually EC50 stands for the concentration giving half of the maximal effect. Lower therefore signals greater potency. A word on the koff: it is the rate constant with which the complex falls apart. Usually kon stands for the second-order rate constant of association. In general, EC50 (read off the curve) refers to the concentration needed to bring the measured effect to its halfway point.

Assay [1] concerns the target T1, mouse TROP2 (purified recombinant antigen, Acro Biosystems Cat #TR2-M52H6) (mouse, UniProt Q8BGV3 25-270).
T1 construct: Bought recombinant protein; also called msTROP2
T1 sequence: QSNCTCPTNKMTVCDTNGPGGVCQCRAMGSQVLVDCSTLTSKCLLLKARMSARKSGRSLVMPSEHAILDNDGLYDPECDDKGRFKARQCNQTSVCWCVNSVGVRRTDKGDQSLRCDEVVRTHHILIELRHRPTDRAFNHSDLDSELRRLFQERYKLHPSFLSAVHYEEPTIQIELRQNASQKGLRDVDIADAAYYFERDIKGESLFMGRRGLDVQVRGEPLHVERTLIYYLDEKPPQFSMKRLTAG
Description: SPR, Carterra LSA; ratio of KD values, reference huTROP2. (In SPR one partner is held on a chip, and binding of the other changes the refractive index at the surface.)

For assay [2], the target named is T2, cynomolgus/rhesus TROP2 (purified recombinant antigen, Acro Biosystems Cat #TR2-R52H3) (cynomolgus/rhesus, UniProt P09758 27-274 (human entry)).
T2 construct: Bought recombinant protein; also called cyTROP2; cyno/rhesus TROP2
T2 chain: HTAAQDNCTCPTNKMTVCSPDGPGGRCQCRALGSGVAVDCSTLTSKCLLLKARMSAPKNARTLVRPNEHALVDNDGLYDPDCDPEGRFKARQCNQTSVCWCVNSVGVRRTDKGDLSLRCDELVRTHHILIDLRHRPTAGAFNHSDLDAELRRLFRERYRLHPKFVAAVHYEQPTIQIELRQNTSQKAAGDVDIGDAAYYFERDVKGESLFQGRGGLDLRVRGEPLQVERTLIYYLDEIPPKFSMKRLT
Nature of the assay: SPR, Carterra LSA; antibody captured on anti-human IgG, antigen injected; 1:1 fit.

The target in assay [3] is T3, human TROP2 (purified recombinant antigen, Acro Biosystems Cat #TR2-H5223) (human, UniProt P09758 27-274).
T3 construct: Bought recombinant protein; also called huTROP2
T3 sequence: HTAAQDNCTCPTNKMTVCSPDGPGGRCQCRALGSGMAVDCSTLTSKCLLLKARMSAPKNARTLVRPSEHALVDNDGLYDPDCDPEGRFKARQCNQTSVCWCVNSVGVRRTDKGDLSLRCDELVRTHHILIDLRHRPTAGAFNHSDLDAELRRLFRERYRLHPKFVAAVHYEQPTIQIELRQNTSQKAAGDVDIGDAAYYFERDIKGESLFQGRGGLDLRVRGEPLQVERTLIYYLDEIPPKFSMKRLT
The assay is described as above.

The target in assay [4] is T1, mouse TROP2 (purified recombinant …). Described as above.
For assay [5], the target named is T4, human Trop2 on cells (FaDu cells, endogenous; ExpiCHO cells overexpressing human Trop2) (human, UniProt P09758 27-323).
T4 construct: Cell-surface form
T4 sequence: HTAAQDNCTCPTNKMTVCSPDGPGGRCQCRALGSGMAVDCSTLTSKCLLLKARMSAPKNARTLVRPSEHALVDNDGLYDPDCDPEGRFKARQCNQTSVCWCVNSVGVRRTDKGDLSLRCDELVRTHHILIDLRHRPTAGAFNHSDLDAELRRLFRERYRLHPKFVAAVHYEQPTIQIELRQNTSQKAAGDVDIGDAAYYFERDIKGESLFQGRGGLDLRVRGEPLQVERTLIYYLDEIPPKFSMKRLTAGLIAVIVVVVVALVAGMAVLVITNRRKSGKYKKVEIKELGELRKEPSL
Description: flow cytometry on FaDu cells (endogenous human Trop2); average of n=1-3 experiments.

Assay [6] deals with T3, human TROP2 (purified recombinant …). Description: SPR, Carterra LSA; antibody captured on anti-human IgG, antigen injected; 1:1 fit. This is another data set of the same source.
Assay [7] addresses T5, human EpCAM (purified recombinant antigen, Acro Biosystems Cat #EPM-H5223) (human, UniProt P16422 24-265).
T5 construct: Bought recombinant protein
T5 sequence: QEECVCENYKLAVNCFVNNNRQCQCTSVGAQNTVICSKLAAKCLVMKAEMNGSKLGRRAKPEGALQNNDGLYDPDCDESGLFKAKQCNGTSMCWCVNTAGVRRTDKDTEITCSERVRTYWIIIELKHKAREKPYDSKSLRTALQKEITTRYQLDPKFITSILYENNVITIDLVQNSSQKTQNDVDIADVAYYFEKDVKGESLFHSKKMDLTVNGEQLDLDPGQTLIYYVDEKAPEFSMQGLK
Nature of the assay: SPR, Carterra LSA; antibody captured on anti-human IgG, antigen injected.

For assay [8], the target named is T4, human Trop2 on cells (FaDu cells, …). Description: flow cytometry on ExpiCHO cells overexpressing human Trop2, percent of cells bound.
Assay [9] concerns the target T3, human TROP2 (purified recombinant …). Nature of the assay: MSD assay: biotinylated TROP2 on streptavidin plate, antibody titrated, anti-human SULFO-TAG detection.
Assay [10] has as its target T6, mouse Trop2 on ExpiCHO cells overexpressing mouse Trop2 (mouse, UniProt Q8BGV3 25-317).
T6 construct: Cell-surface form
T6 sequence: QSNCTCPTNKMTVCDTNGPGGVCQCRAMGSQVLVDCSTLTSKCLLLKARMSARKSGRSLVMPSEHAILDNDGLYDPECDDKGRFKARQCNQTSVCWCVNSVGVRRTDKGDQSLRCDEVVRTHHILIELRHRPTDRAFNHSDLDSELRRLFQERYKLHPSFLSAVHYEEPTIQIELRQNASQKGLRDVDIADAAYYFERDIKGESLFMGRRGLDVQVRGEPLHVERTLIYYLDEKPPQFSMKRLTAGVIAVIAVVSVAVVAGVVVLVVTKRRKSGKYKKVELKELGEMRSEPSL
Description: flow cytometry on ExpiCHO cells overexpressing mouse Trop2, percent of cells bound. (A flow cytometer gives signals particle by particle.)

B1: SD-970200 (antibody, V domains shown)
VH: AVTLDESGGGLQTPGGALSLVCKGSGFTFSSYAMGWVRQAPGKGLEYVAAISSGSSTGYGAAVKGRATISKDTGQSTVRLQLNNLRAEDTATYYCAKSGYGGSASYVSDIDAWGHGTEVIVSS
VL: ALALTQPSSVSANPGETVEITCSGGGDYYGTYYYGWYQQKAPGSAPVTVIYDNTKRPSNIPSRFSGSTSGSTNTLTITGVQADDEAVYYCGSYDSSAGIFGAGTTLTVL
notes: Chicken/human chimera
For the molecule B1, in [1], the “Fold difference in affinity (huTROP2:msTROP2)” value (shortened to “Fold difference in affinity”) was determined as 3 fold. The Kd in assay [2] is 0.29 nM; in assay [3], 0.21 nM; in assay [4], 0.63 nM; in [6] it was 0.21 nM. Moreover, the response in assay [5] was half-maximal at 1.53 nM (EC50). Further, the off-rate (koff) in [6] was found to be 0.000114 s⁻¹. Besides, in [6], the kon was 555000 M⁻¹ s⁻¹. Further, in assay [7], the binding result is listed as “no binding (tested: 1 µM top concentration)”. The “EC50 (read off the curve)” value is around 0.05 nM in assay [8] and around 0.2 nM in assay [9].

B2: SD-530939 (antibody, V domains shown)
VH: AVTLDESGGGLQTPGGGLSLVCKASGFDFIDYDMFWVRQAPGKGLEWVGVINRSGSYTNYAPAVKGRATISRDNGQSTLRLQLNNLRAEDTGTYYCARGACTHCWDADSAGYIDAWGHGTEVIVSS
VL: ALALTQPSSVSANPGETVKITCSGGYSGYGWYQQKSPGSAPVTVIYWNDKRPSNIPSRFSGSLSGSTNTLIITGVQAEDEAVYFCGGYDSSPGYVGIFGAGTTLTVL
notes: Chicken/human chimera
For B2, the results for the “EC50 (read off the curve)” value in [10], in [8] and in assay [9] were around 0.02 nM, around 0.02 nM and around 0.2 nM, respectively. Moreover, in [1], the “Fold difference in affinity” value is 2.1 fold. Moreover, the Kd was determined as 0.6 nM in [2], 0.46 nM in assay [3], 0.96 nM in assay [4] and 0.46 nM in assay [6]. Besides, it took 0.673 nM to reach a half-maximal effect in [5] (EC50). Besides, the koff in assay [6] came out at 0.000155 s⁻¹. The kon in assay [6] was 337000 M⁻¹ s⁻¹. The binding result in [7] is reported as “no binding (tested: 1 µM top concentration)”.

B3: SD-685208 (antibody, V domains shown)
VH: AVTLDESGGGLQTPGGALSLVCKASGFDFIDYDMFWVRQAPGKGLEWVGVINRSGSYTNYAPAVKGRATISRDNGQSTMRLQLNNLRAEDTGTYYCARGACTHCWDADSAGYIDAWGHGTEVIVSS
VL: ALALTQPSSVSANPGETVKITCSGSSGSYGWFQQKSPGSAPVTVIYWNDKRPSDIPSRFSGSTSGSTGTLTITGVQADDEAVYFCGNADSSGTFGAGTTLTVL
notes: Chicken/human chimera
On to B3, for which the “Fold difference in affinity” value in assay [1] turned out to be 3 fold. In addition, the dissociation constant Kd was found to be 6.08 nM in [2], 3.81 nM in assay [3], 11.4 nM in [4] and 3.81 nM in assay [6]. Also, in assay [5], the EC50 came to 0.513 nM. Also, in assay [6], the off-rate (koff) was determined as 0.000898 s⁻¹. Further, in assay [6], the on-rate constant (kon) is 235000 M⁻¹ s⁻¹. The binding result in [7] is on record as “no binding (tested: 1 µM top concentration)”. Moreover, the concentration giving a half-maximal response (EC50 (read off the curve)) in [9] is around 0.08 nM.

B4: SD-589775 (antibody, V domains shown)
VH: AVTLDESGGGLQTPGGGLSLVCKASGFDFIDYDMFWVRQAPGKGLEWVGVINRSGSYTNYAPAVKGRATISRDNGQSTMRLQLNNLRAEDTGTYYCARGACTHCWDADSAGYIDAWGHGTEVIVSS
VL: ALALTQPSSVSANPGGTVKITCSGSSGSYGWHQQKSPGSAPVTVIYSSDKRPSDIPSRFSGALSGSTATLTITGVRAEDEAVYYCGGYDGSTDVGIFGAGTTLTVL
notes: Chicken/human chimera; also called parental chimera
For B4, the half-maximal effective concentration (EC50 (read off the curve)) in assay [10] and in assay [8] was around 0.02 nM each time. Further, the “Fold difference in affinity” value in assay [1] came out at 1 fold. Besides, the Kd is 0.48 nM in [2], 0.35 nM in assay [3], 0.35 nM in [4] and 0.35 nM in assay [6]. The molecule further came in with an EC50 in assay [5] of 0.607 nM. For the same molecule, the koff in [6] is 0.000223 s⁻¹. For the same molecule, in [6], the kon was 643000 M⁻¹ s⁻¹. The binding result in assay [7] is “no binding (tested: 1 µM top concentration)”.

B5: SD-320063 (antibody, V domains shown)
VH: AVTLDESGGGLQTPGGGLSLVCKASGFDFIDYDMFWVRQAPGKGLAWVGVINRSGSYTNYAPAVKGRATISRDNGQSTVRLQLNNLRAEDTGTYYCAKGVCTHCWDADSAGNIDAWGHGTEVIVSS
VL: ALALTQPSSVSANPGETVEITCSGGSGNYGWFQQKSPGSAPVTVIYNNNYRLSDIPSRFSGSASGSTATLTITGVRVEDEAVYFCGSADSTYVGLFGAGTTLTVL
notes: Chicken/human chimera
Consider B5, for which the “EC50 (read off the curve)” value in [10] is around 0.03 nM. Also, the “Fold difference in affinity” value in assay [1] was found to be 6.9 fold. Moreover, the dissociation constant Kd in assay [2] came out at 0.11 nM; in [3] it was 0.23 nM; in assay [4], 1.59 nM; in assay [6] it was 0.23 nM. This molecule also returned a concentration giving a half-maximal response (EC50) in assay [5] of 1.99 nM. For the same molecule, in assay [6], the koff was determined as 3.42e-05 s⁻¹. Moreover, in [6], the on-rate constant (kon) worked out at 148000 M⁻¹ s⁻¹. Besides, the binding result in assay [7] is given as “no binding (tested: 1 µM top concentration)”.

B6: SD-168804 (antibody, V domains shown)
VH: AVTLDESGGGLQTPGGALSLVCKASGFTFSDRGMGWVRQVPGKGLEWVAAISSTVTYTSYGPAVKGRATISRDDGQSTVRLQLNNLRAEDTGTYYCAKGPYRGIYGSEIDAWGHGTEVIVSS
VL: ALALTQPSSVSANPGETVKITCSGGSYSYGSYYYGWYQQKSPGSAPVTVIYDNDKRPSGIPSRFSGSKSGSTGTLTITGVQAEDEAVYFCGSTDSSSTAAFGAGTTLTVL
notes: Chicken/human chimera
For B6, the “EC50 (read off the curve)” value in assay [10] is around 5 nM. In addition, the “Fold difference in affinity” value in assay [1] came to 1.2 fold. The Kd in [2] was found to be 15.3 nM; in assay [3], 11.5 nM; in [4], 13.6 nM; in assay [6], 11.5 nM. This molecule also had a 50% effective concentration (EC50) in [5] of 1.05 nM. In assay [6], the koff is 0.000294 s⁻¹. Further, in assay [6], the kon was determined as 25500 M⁻¹ s⁻¹. Besides, the binding result in assay [7] is recorded as “no binding (tested: 1 µM top concentration)”.

B7: RS7 (antibody, V domains shown)
VH: QVQLQQSGSELKKPGASVKVSCKASGYTFTNYGMNWVKQAPGQGLKWMGWINTYTGEPTYTDDFKGRFAFSLDTSVSTAYLQISSLKADDTAVYFCARGGFGSSYWYFDVWGQGSLVTVSS
VL: DIQLTQSPSSLSASVGDRVSITCKASQDVSIAVAWYQQKPGKAPKLLIYSASYRYTGVPDRFSGSGSGTDFTLTISSLQPEDFAVYYCQQHYITPLTFGAGTKVEIKR
Take B7: the Kd stood at 2.05 nM in [2], 1.81 nM in assay [3] and 1.81 nM in assay [6]. In [5], the 50% effective concentration (EC50) came to 2 nM. For the same molecule, the dissociation rate constant (koff) in assay [6] worked out at 0.000201 s⁻¹. Besides, the kon in assay [6] amounted to 111000 M⁻¹ s⁻¹. Besides, the concentration for a half-maximal effect (EC50 (read off the curve)) in assay [8] is around 0.03 nM; in assay [9], around 0.3 nM.
